B1: wild-type C05 Fab (VVSAGW), expressed in insect cells (Fab, V domains shown)
VH: QVQLQESGGGLVQPGESLRLSCVGSGSSFGESTLSYYAVSWVRQAPGKGLEWLSIINAGGGDIDYADSVEGRFTISRDNSKETLYLQMTNLRVEDTGVYYCAKHMSMQQVVSAGWERADLVGDAFDVWGQGTMVTVSS
VL: DIQLTQSPSSLSASVGDRVTLTCQASQDIRKFLNWYQQKPGKGPKLLIYDASNLQRGVPSRFSGGGSGTDFTLIISSLQPEDVGTYYCQQYDGLPFTFGGGTKVVIK
B2: C05 Fab variant VASSGW displayed on yeast (Fab, V domains shown)
VH: QVQLQESGGGLVQPGESLRLSCVGSGSSFGESTLSYYAVSWVRQAPGKGLEWLSIINAGGGDIDYADSVEGRFTISRDNSKETLYLQMTNLRVEDTGVYYCAKHMSMQQVASSGWERADLVGDAFDVWGQGTMVTVSS
VL: DIQLTQSPSSLSASVGDRVTLTCQASQDIRKFLNWYQQKPGKGPKLLIYDASNLQRGVPSRFSGGGSGTDFTLIISSLQPEDVGTYYCQQYDGLPFTFGGGTKVVIK
B3: C05 Fab variant LPSSGW displayed on yeast (Fab, V domains shown)
VH: QVQLQESGGGLVQPGESLRLSCVGSGSSFGESTLSYYAVSWVRQAPGKGLEWLSIINAGGGDIDYADSVEGRFTISRDNSKETLYLQMTNLRVEDTGVYYCAKHMSMQQLPSSGWERADLVGDAFDVWGQGTMVTVSS
VL: DIQLTQSPSSLSASVGDRVTLTCQASQDIRKFLNWYQQKPGKGPKLLIYDASNLQRGVPSRFSGGGSGTDFTLIISSLQPEDVGTYYCQQYDGLPFTFGGGTKVVIK
B4: C05 Fab variant VASAGW displayed on yeast (Fab, V domains shown)
VH: QVQLQESGGGLVQPGESLRLSCVGSGSSFGESTLSYYAVSWVRQAPGKGLEWLSIINAGGGDIDYADSVEGRFTISRDNSKETLYLQMTNLRVEDTGVYYCAKHMSMQQVASAGWERADLVGDAFDVWGQGTMVTVSS
VL: DIQLTQSPSSLSASVGDRVTLTCQASQDIRKFLNWYQQKPGKGPKLLIYDASNLQRGVPSRFSGGGSGTDFTLIISSLQPEDVGTYYCQQYDGLPFTFGGGTKVVIK
B5: C05 Fab variant WYVHLW displayed on yeast (Fab, V domains shown)
VH: QVQLQESGGGLVQPGESLRLSCVGSGSSFGESTLSYYAVSWVRQAPGKGLEWLSIINAGGGDIDYADSVEGRFTISRDNSKETLYLQMTNLRVEDTGVYYCAKHMSMQQWYVHLWERADLVGDAFDVWGQGTMVTVSS
VL: DIQLTQSPSSLSASVGDRVTLTCQASQDIRKFLNWYQQKPGKGPKLLIYDASNLQRGVPSRFSGGGSGTDFTLIISSLQPEDVGTYYCQQYDGLPFTFGGGTKVVIK
B6: C05 Fab variant VATSGW displayed on yeast (Fab, V domains shown)
VH: QVQLQESGGGLVQPGESLRLSCVGSGSSFGESTLSYYAVSWVRQAPGKGLEWLSIINAGGGDIDYADSVEGRFTISRDNSKETLYLQMTNLRVEDTGVYYCAKHMSMQQVATSGWERADLVGDAFDVWGQGTMVTVSS
VL: DIQLTQSPSSLSASVGDRVTLTCQASQDIRKFLNWYQQKPGKGPKLLIYDASNLQRGVPSRFSGGGSGTDFTLIISSLQPEDVGTYYCQQYDGLPFTFGGGTKVVIK
B7: C05 Fab variant YEPAGW displayed on yeast (Fab, V domains shown)
VH: QVQLQESGGGLVQPGESLRLSCVGSGSSFGESTLSYYAVSWVRQAPGKGLEWLSIINAGGGDIDYADSVEGRFTISRDNSKETLYLQMTNLRVEDTGVYYCAKHMSMQQYEPAGWERADLVGDAFDVWGQGTMVTVSS
VL: DIQLTQSPSSLSASVGDRVTLTCQASQDIRKFLNWYQQKPGKGPKLLIYDASNLQRGVPSRFSGGGSGTDFTLIISSLQPEDVGTYYCQQYDGLPFTFGGGTKVVIK
B8: C05 Fab variant VVDSGW, in supernatant of transfected 293T cells (Fab, V domains shown)
VH: QVQLQESGGGLVQPGESLRLSCVGSGSSFGESTLSYYAVSWVRQAPGKGLEWLSIINAGGGDIDYADSVEGRFTISRDNSKETLYLQMTNLRVEDTGVYYCAKHMSMQQVVDSGWERADLVGDAFDVWGQGTMVTVSS
VL: DIQLTQSPSSLSASVGDRVTLTCQASQDIRKFLNWYQQKPGKGPKLLIYDASNLQRGVPSRFSGGGSGTDFTLIISSLQPEDVGTYYCQQYDGLPFTFGGGTKVVIK
notes: not shown: His6, C-terminal, kept
B9: C05 Fab variant IPGSGW displayed on yeast (Fab, V domains shown)
VH: QVQLQESGGGLVQPGESLRLSCVGSGSSFGESTLSYYAVSWVRQAPGKGLEWLSIINAGGGDIDYADSVEGRFTISRDNSKETLYLQMTNLRVEDTGVYYCAKHMSMQQIPGSGWERADLVGDAFDVWGQGTMVTVSS
VL: DIQLTQSPSSLSASVGDRVTLTCQASQDIRKFLNWYQQKPGKGPKLLIYDASNLQRGVPSRFSGGGSGTDFTLIISSLQPEDVGTYYCQQYDGLPFTFGGGTKVVIK
B10: C05 Fab variant WPEIGF displayed on yeast (Fab, V domains shown)
VH: QVQLQESGGGLVQPGESLRLSCVGSGSSFGESTLSYYAVSWVRQAPGKGLEWLSIINAGGGDIDYADSVEGRFTISRDNSKETLYLQMTNLRVEDTGVYYCAKHMSMQQWPEIGFERADLVGDAFDVWGQGTMVTVSS
VL: DIQLTQSPSSLSASVGDRVTLTCQASQDIRKFLNWYQQKPGKGPKLLIYDASNLQRGVPSRFSGGGSGTDFTLIISSLQPEDVGTYYCQQYDGLPFTFGGGTKVVIK
B11: C05 Fab variant VVDAGW, in supernatant of transfected 293T cells (Fab, V domains shown)
VH: QVQLQESGGGLVQPGESLRLSCVGSGSSFGESTLSYYAVSWVRQAPGKGLEWLSIINAGGGDIDYADSVEGRFTISRDNSKETLYLQMTNLRVEDTGVYYCAKHMSMQQVVDAGWERADLVGDAFDVWGQGTMVTVSS
VL: DIQLTQSPSSLSASVGDRVTLTCQASQDIRKFLNWYQQKPGKGPKLLIYDASNLQRGVPSRFSGGGSGTDFTLIISSLQPEDVGTYYCQQYDGLPFTFGGGTKVVIK
B12: C05 Fab variant VVEAGW, in supernatant of transfected 293T cells (Fab, V domains shown)
VH: QVQLQESGGGLVQPGESLRLSCVGSGSSFGESTLSYYAVSWVRQAPGKGLEWLSIINAGGGDIDYADSVEGRFTISRDNSKETLYLQMTNLRVEDTGVYYCAKHMSMQQVVEAGWERADLVGDAFDVWGQGTMVTVSS
VL: DIQLTQSPSSLSASVGDRVTLTCQASQDIRKFLNWYQQKPGKGPKLLIYDASNLQRGVPSRFSGGGSGTDFTLIISSLQPEDVGTYYCQQYDGLPFTFGGGTKVVIK
B13: C05 Fab variant VVGSGW displayed on yeast (Fab, V domains shown)
VH: QVQLQESGGGLVQPGESLRLSCVGSGSSFGESTLSYYAVSWVRQAPGKGLEWLSIINAGGGDIDYADSVEGRFTISRDNSKETLYLQMTNLRVEDTGVYYCAKHMSMQQVVGSGWERADLVGDAFDVWGQGTMVTVSS
VL: DIQLTQSPSSLSASVGDRVTLTCQASQDIRKFLNWYQQKPGKGPKLLIYDASNLQRGVPSRFSGGGSGTDFTLIISSLQPEDVGTYYCQQYDGLPFTFGGGTKVVIK
B14: C05 Fab variant VPGAGW displayed on yeast (Fab, V domains shown)
VH: QVQLQESGGGLVQPGESLRLSCVGSGSSFGESTLSYYAVSWVRQAPGKGLEWLSIINAGGGDIDYADSVEGRFTISRDNSKETLYLQMTNLRVEDTGVYYCAKHMSMQQVPGAGWERADLVGDAFDVWGQGTMVTVSS
VL: DIQLTQSPSSLSASVGDRVTLTCQASQDIRKFLNWYQQKPGKGPKLLIYDASNLQRGVPSRFSGGGSGTDFTLIISSLQPEDVGTYYCQQYDGLPFTFGGGTKVVIK
B15: C05 Fab variant LPGGGW displayed on yeast (Fab, V domains shown)
VH: QVQLQESGGGLVQPGESLRLSCVGSGSSFGESTLSYYAVSWVRQAPGKGLEWLSIINAGGGDIDYADSVEGRFTISRDNSKETLYLQMTNLRVEDTGVYYCAKHMSMQQLPGGGWERADLVGDAFDVWGQGTMVTVSS
VL: DIQLTQSPSSLSASVGDRVTLTCQASQDIRKFLNWYQQKPGKGPKLLIYDASNLQRGVPSRFSGGGSGTDFTLIISSLQPEDVGTYYCQQYDGLPFTFGGGTKVVIK
B16: C05 Fab variant YDPGGW displayed on yeast (Fab, V domains shown)
VH: QVQLQESGGGLVQPGESLRLSCVGSGSSFGESTLSYYAVSWVRQAPGKGLEWLSIINAGGGDIDYADSVEGRFTISRDNSKETLYLQMTNLRVEDTGVYYCAKHMSMQQYDPGGWERADLVGDAFDVWGQGTMVTVSS
VL: DIQLTQSPSSLSASVGDRVTLTCQASQDIRKFLNWYQQKPGKGPKLLIYDASNLQRGVPSRFSGGGSGTDFTLIISSLQPEDVGTYYCQQYDGLPFTFGGGTKVVIK
B17: C05 Fab variant VVDSGW displayed on yeast (Fab, V domains shown)
VH: QVQLQESGGGLVQPGESLRLSCVGSGSSFGESTLSYYAVSWVRQAPGKGLEWLSIINAGGGDIDYADSVEGRFTISRDNSKETLYLQMTNLRVEDTGVYYCAKHMSMQQVVDSGWERADLVGDAFDVWGQGTMVTVSS
VL: DIQLTQSPSSLSASVGDRVTLTCQASQDIRKFLNWYQQKPGKGPKLLIYDASNLQRGVPSRFSGGGSGTDFTLIISSLQPEDVGTYYCQQYDGLPFTFGGGTKVVIK
B18: C05 Fab variant VEEAGW, in supernatant of transfected 293T cells (Fab, V domains shown)
VH: QVQLQESGGGLVQPGESLRLSCVGSGSSFGESTLSYYAVSWVRQAPGKGLEWLSIINAGGGDIDYADSVEGRFTISRDNSKETLYLQMTNLRVEDTGVYYCAKHMSMQQVEEAGWERADLVGDAFDVWGQGTMVTVSS
VL: DIQLTQSPSSLSASVGDRVTLTCQASQDIRKFLNWYQQKPGKGPKLLIYDASNLQRGVPSRFSGGGSGTDFTLIISSLQPEDVGTYYCQQYDGLPFTFGGGTKVVIK
notes: as for B8

Legend:
[1] = molecular target: biotinylated HA0 ectodomain of A/Panama/2007/1999 (H3N2) (Influenza A virus A/Panama/2007/1999 …, UniProt Q1K9M3, strain, biotin on the BirA biotinylation site); assay: BLI; conditions: both partners purified
[2] = molecular target: biotinylated HA0 ectodomain of A/New Caledonia/20/1999 (H1N1) (Influenza A virus A/New …, UniProt Q6WG00, strain, biotin on the BirA biotinylation site); assay: BLI; conditions: both partners purified
[3] = molecular target: T1, biotinylated HA0 ectodomain of A/Perth/16/2009 (H3N2) (Influenza A virus A/Perth/16/2009 (H3N2), UniProt C6KNH7, strain, biotin on the BirA biotinylation site); assay: BLI; conditions: both partners purified
[4] = molecular target: T2, biotinylated HA0 ectodomain of A/Solomon Islands/3/2006 (H1N1) (Influenza A virus A/Solomon …, UniProt A7Y8I1, strain, biotin on the BirA biotinylation site); assay: BLI; conditions: both partners purified
[5] = molecular target: biotinylated HA0 ectodomain of A/Beijing/262/1995 (H1N1) (Influenza A virus A/Beijing/262/1995 …, UniProt Q6WG01, strain, biotin on the BirA biotinylation site); assay: BLI; conditions: both partners purified
[6] = molecular target: T2, biotinylated HA0 ectodomain of …; assay: yeast display selection (FACS) with next-generation sequencing; conditions: one partner purified
[7] = molecular target: T1, biotinylated HA0 ectodomain of …; assay: as above; conditions: one partner purified
[8] = molecular target: T1, biotinylated HA0 ectodomain of …; assay: BLI; conditions: one partner purified

| Binder | binding result [6] | binding result [7] | also measured |
| --- | --- | --- | --- |
| B1 | – | – | Kd [1]: 926 ± 12.1 nM; Kd [2]: 6.3 ± 0.1 nM; Kd [3]: 23.4 ± 0.1 nM; Kd [4]: 91.4 ± 0.9 nM; Kd [5]: 23.1 ± 0.6 nM |
| B2 | binds | – | – |
| B3 | binds | – | – |
| B4 | – | binds | – |
| B5 | – | binds | – |
| B6 | binds | – | – |
| B7 | – | binds | – |
| B8 | – | – | binding result [8]: binds |
| B9 | binds | – | – |
| B10 | binds | – | – |
| B11 | – | – | binding result [8]: binds |
| B12 | – | – | binding result [8]: binds |
| B13 | binds | binds | – |
| B14 | binds | binds | – |
| B15 | – | binds | – |
| B16 | – | binds | – |
| B17 | – | binds | – |
| B18 | – | – | binding result [8]: binds |

Source: publication PMC5440694 (Nature Communications, 2017)
